# Measurements as given in paper PMC5709234 (Journal of the American Society for Mass Spectrometry, 2017).
# Values joined by “and” are separate entries in the source; they are usually repeats but may differ in a detail not shown here. Identical values can stand only once. Like-named read-outs stand apart in the source and are kept apart here.
# B1: Enolase 1 (S. cerevisiae) (enzyme, UniProt P00924 2-437, looked up)
# chain: AVSKVYARSVYDSRGNPTVEVELTTEKGVFRSIVPSGASTGVHEALEMRDGDKSKWMGKGVLHAVKNVNDVIAPAFVKANIDVKDQKAVDDFLISLDGTANKSKLGANAILGVSLAASRAAAAEKNVPLYKHLADLSKSKTSPYVLPVPFLNVLNGGSHAGGALALQEFMIAPTGAKTFAEALRIGSEVYHNLKSLTKKRYGASAGNVGDEGGVAPNIQTAEEALDLIVDAIKAAGHDGKVKIGLDCASSEFFKDGKYDLDFKNPNSDKSKWLTGPQLADLYHSLMKRYPIVSIEDPFAEDDWEAWSHFFKTAGIQIVADDLTVTNPKRIATAIEKKAADALLLKVNQIGTLSESIKAAQDSFAAGWGVMVSHRSGETEDTFIADLVVGLRTGQIKTGAPARSERLAKLNQLLRIEEELGDNAVFAGENFHHGDKL
# B2: Pyruvate kinase type III (Oryctolagus caniculus) (enzyme)
# chain: not shown
# Legend:
# native MS [1] = target: the molecule itself; assay: native MS
# native MS [2] = target: the molecule itself; assay: native MS; remark: listed apart in the source
Protein,stoichiometry N (native MS [1]),stoichiometry N (native MS [2])
B1,2,
B2,,2 and 4
